Results on four molecules are retold here after paper PMC10653929, “Activities, substrate specificity, and genetic interactions of fission yeast Siw14, a cysteinyl-phosphatase-type inositol pyrophosphatase” (mBio, 2023).

One data set deals with T1, SpSiw14; Siw14-(1-287) (Schizosaccharomyces pombe, UniProt Q9UUF3).
T1 construct: full length aa 1-287, E. coli BL21(DE3), His10Smt3 tag removed with Ulp1, monomer by gel filtration
T1 sequence (Q9UUF3 1-287): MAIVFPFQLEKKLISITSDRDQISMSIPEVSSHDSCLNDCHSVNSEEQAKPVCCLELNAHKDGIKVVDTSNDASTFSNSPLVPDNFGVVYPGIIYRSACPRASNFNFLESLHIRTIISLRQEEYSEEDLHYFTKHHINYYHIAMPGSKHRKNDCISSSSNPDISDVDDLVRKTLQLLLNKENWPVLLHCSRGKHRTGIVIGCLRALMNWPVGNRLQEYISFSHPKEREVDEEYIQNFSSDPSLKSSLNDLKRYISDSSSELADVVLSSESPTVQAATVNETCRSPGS
Briefly: inhibition of p-nitrophenylphosphate hydrolysis. It counts as biochemical. The source says:
inhibition of p-nitrophenylphosphate hydrolysis on SpSiw14; Siw14-(1-287) | Phosphate and sulfate elicited a similar concentration-dependent inhibition of SpSiw14 phosphatase activity with an IC50

The next data set addresses Cys403 (UniProt position 403, RPVIHCRAGVG). As to the kind of experiment: chemical modification. The note with it: cited from earlier work.
Substrate in data set [1]: O=P(O)(O)OP(=O)(O)O
Briefly: phosphate release by Malachite Green, Michaelis-Menten fit. It counts as biochemical, Schizosaccharomyces pombe. The note with it: 25 mM Tris-acetate pH 5.0, 1 mM DTT, 37°C, no divalent cation, apparent kcat per PPi consumed.

Substrate in the data set “purified protein”: O=[N+]([O-])c1ccc(OP(=O)(O)O)cc1
Briefly: purified protein. Format: biochemical, Schizosaccharomyces pombe. The note with it: 25 mM Tris-acetate pH 5.0, 1 mM DTT, 37°C, no divalent cation.

As usually defined, the IC50 is the point on the concentration scale where inhibition reaches its midpoint. Turning to `O=S(=O)(O)O` [sulfate], the IC50 on SpSiw14; Siw14-(1-287) was about 5 mM.

On SpSiw14; Siw14-(1-287), `O=P(O)(O)O` [inorganic phosphate] showed a half-maximal inhibitory concentration (IC50) of about 5 mM.

As a reminder, the pKa is the pH at which an ionisable group is half protonated. Regarding “Yersinia protein tyrosine phosphatase (Yersinia PTPase, YopH/Yop51) (Yersinia sp. (species not stated in the article; inferred Yersinia enterocolitica))”, the pKa with Cys403 is 4.67.

B1: SpSiw14; Siw14-(1-287) (Schizosaccharomyces pombe 972h-) (protein)
chain: MAIVFPFQLEKKLISITSDRDQISMSIPEVSSHDSCLNDCHSVNSEEQAKPVCCLELNAHKDGIKVVDTSNDASTFSNSPLVPDNFGVVYPGIIYRSACPRASNFNFLESLHIRTIISLRQEEYSEEDLHYFTKHHINYYHIAMPGSKHRKNDCISSSSNPDISDVDDLVRKTLQLLLNKENWPVLLHCSRGKHRTGIVIGCLRALMNWPVGNRLQEYISFSHPKEREVDEEYIQNFSSDPSLKSSLNDLKRYISDSSSELADVVLSSESPTVQAATVNETCRSPGS
notes: full length aa 1-287, E. coli BL21(DE3), His10Smt3 tag removed with Ulp1, monomer by gel filtration
The term Km denotes the concentration of substrate that gives half-maximal velocity. For orientation: kcat means the maximal rate divided by the concentration of active sites. As to B1, in data set [1], the Km was 1130 ± 340 µM and the kcat stood at 0.443 ± 0.0817 s⁻¹. In “purified protein”, the Km was 1640 ± 180 µM and the kcat was determined as 1.24 ± 0.045 s⁻¹.
